Measured values as given in patent US7408027.

What was measured:
[1] = molecular target: taxol-stabilized microtubules made from PC tubulin; assay: microtubule pelleting assay, gel densitometry, fitted
[2] = molecular target: taxol-stabilized microtubules made from PC tubulin; assay: microtubule pelleting assay after brain extract phosphorylation
[3] = molecular target: taxol-stabilized microtubules made from PC tubulin; assay: microtubule pelleting assay after 90 min phosphorylation
[4] = molecular target: taxol-stabilized microtubules made from PC tubulin; assay: microtubule pelleting assay, gel densitometry, fitted; 30 µM polymerized tubulin
[5] = molecular target: taxol-stabilized microtubules made from PC tubulin; assay: microtubule pelleting assay after 35 kDal kinase
[6] = molecular target: taxol-stabilized microtubules made from PC tubulin; assay: microtubule pelleting assay after 35 kDal kinase, fitted
[7] = molecular target: taxol-stabilized microtubules made from PC tubulin; assay: co-sedimentation of tau with microtubules in taxol, fitted binding curve (control curve)
[8] = molecular target: taxol-stabilized microtubules made from PC tubulin; assay: co-sedimentation of tau with taxol-stabilized microtubules (30 µM polymerized tubulin), SDS gel densitometry, fitted binding curve
[9] = molecular target: taxol-stabilized microtubules made from PC tubulin; assay: microtubule pelleting assay, microtubules from 10 µM tubulin with 20 µM taxol
[10] = molecular target: taxol-stabilized microtubules made from PC tubulin; assay: co-sedimentation of tau with microtubules made from 10 µM tubulin in 20 µM taxol, fitted binding curve
[11] = molecular target: taxol-stabilized microtubules made from PC tubulin; assay: co-sedimentation of tau with taxol-stabilized microtubules, SDS gel densitometry, fitted binding curve
[12] = molecular target: taxol-stabilized microtubules made from PC tubulin; assay: microtubule pelleting assay after MAP kinase

AP18 phosphorylated with the brain extract activity (from UniProt P10636 1-352)
Kd [1]: 6.1 µM
stoichiometry n (tau/tubulin dimer) (tau/tubulin dimer) [1]: 0.48
difference in stoichiometry upon phosphorylation (Dn) (tau/tubulin dimer) [2]: 0.01

S404-A mutant of htau34 after 90 min of phosphorylation by the brain extract kinase activity (from UniProt P10636 1-412)
fold decrease of stoichiometry against the unphosphorylated mutant [3]: 2 fold

htau23 mutant Ser202-Ala phosphorylated with brain extract (from UniProt P10636 1-352)
Kd [4]: 9.4 µM
stoichiometry n (tau/tubulin dimer) (tau/tubulin dimer) [4]: 0.31

htau23 mutant Ser262-Ala phosphorylated with brain extract (from UniProt P10636 1-352)
difference in stoichiometry upon phosphorylation (Dn) (tau/tubulin dimer) [2]: 0.04

htau23 phosphorylated by the 35 kDal kinase (from UniProt P10636 2-352)
reduction in stoichiometry upon phosphorylation (Dn) (tau/tubulin dimer) [5]: 0.28
Kd [6]: 8.8 µM
stoichiometry n (tau/tubulin dimer) (tau/tubulin dimer) [6]: 0.21

htau23 phosphorylated by the brain extract kinase activity (stage 2-3, up to 24 h) (from UniProt P10636 2-352)
difference in stoichiometry upon phosphorylation (Dn) (tau/tubulin dimer) [2]: 0.33
Kd [4]: 4.9 µM
stoichiometry n (tau/tubulin dimer) (tau/tubulin dimer) [4]: 0.16
Kd [7]: 4.9 µM
n [7]: 0.16
Kd [8]: 4.9 µM
n [8]: 0.16

htau23 phosphorylated with GSK3 (from UniProt P10636 2-352)
stoichiometry (tau per tubulin dimer) (per tubulin dimer) [9]: 0.6
Kd [10]: 2400 nM
n [10]: 0.6

htau23/A404 (Ser404 replaced by Ala), unphosphorylated (from UniProt P10636 1-758)
Kd [11]: 4.3 µM
n [11]: 0.54

htau23/A404 phosphorylated by the brain extract kinase activity (from UniProt P10636 1-352)
Dn as percent of the unmutated control [2]: 52%
difference in stoichiometry upon phosphorylation (Dn) (tau/tubulin dimer) [2]: 0.17
Kd [11]: 9.3 µM
n [11]: 0.32

htau34 phosphorylated by the brain extract kinase activity (stage 2-3, up to 24 h) (from UniProt P10636 2-412)
Kd [8]: 10.4 µM
n [8]: 0.16

htau34 phosphorylated by the brain extract kinase activity for 90 min (stage 1) (from UniProt P10636 2-412)
fold decrease of stoichiometry against unphosphorylated htau34 [3]: 3 fold

htau40 phosphorylated by the brain extract kinase activity (from UniProt P10636 2-758)
difference in stoichiometry upon phosphorylation (Dn) (tau/tubulin dimer) [2]: 0.31
Kd [11]: 9.6 µM
n [11]: 0.15

htau40 phosphorylated with MAP kinase (from UniProt P10636 2-758)
difference in stoichiometry upon phosphorylation (Dn) (tau/tubulin dimer) [12]: 0.09
Kd [11]: 1.9 µM
n [11]: 0.37

human tau isoform htau34, bacterially expressed, unphosphorylated (from UniProt P10636 2-412)
Kd [1]: 1 to 2 µM
Kd [8]: 1.4 µM
n [8]: 0.43

human tau isoform htau40, bacterially expressed, unphosphorylated (from UniProt P10636 2-758)
Kd [11]: 1.1 µM
n [11]: 0.46
